Assays:
[1] = target: CD14 (human) (UniProt P08571); experiment: cell-based or functional assay
[2] = target: human TLR4 (Toll-like receptor 4) (human) (UniProt O00206); experiment: cell-based or functional assay
Sequence of UniProt O00206 (O00206 24-839): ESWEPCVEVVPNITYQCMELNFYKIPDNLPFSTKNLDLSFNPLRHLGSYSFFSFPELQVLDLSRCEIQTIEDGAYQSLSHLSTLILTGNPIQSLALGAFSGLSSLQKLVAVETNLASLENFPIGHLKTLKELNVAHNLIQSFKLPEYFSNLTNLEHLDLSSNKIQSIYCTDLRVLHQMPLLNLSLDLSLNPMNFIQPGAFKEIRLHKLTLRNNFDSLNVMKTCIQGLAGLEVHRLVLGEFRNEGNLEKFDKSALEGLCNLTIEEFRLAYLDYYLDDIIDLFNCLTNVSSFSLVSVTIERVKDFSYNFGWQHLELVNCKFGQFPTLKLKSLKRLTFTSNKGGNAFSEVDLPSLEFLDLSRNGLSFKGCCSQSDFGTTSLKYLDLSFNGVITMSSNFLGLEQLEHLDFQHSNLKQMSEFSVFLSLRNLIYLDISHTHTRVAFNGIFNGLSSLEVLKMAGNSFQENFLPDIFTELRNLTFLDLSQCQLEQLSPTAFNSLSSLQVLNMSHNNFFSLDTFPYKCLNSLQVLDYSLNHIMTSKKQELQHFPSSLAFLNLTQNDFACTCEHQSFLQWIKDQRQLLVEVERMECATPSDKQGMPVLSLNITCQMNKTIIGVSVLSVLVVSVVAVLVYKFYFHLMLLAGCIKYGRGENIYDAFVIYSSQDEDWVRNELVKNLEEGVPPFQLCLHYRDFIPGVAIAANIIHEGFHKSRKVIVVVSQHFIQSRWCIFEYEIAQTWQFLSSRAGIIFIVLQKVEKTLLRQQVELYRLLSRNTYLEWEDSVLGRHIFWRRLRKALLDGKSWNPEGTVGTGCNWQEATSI

Sequence of UniProt P08571 (P08571 20-345): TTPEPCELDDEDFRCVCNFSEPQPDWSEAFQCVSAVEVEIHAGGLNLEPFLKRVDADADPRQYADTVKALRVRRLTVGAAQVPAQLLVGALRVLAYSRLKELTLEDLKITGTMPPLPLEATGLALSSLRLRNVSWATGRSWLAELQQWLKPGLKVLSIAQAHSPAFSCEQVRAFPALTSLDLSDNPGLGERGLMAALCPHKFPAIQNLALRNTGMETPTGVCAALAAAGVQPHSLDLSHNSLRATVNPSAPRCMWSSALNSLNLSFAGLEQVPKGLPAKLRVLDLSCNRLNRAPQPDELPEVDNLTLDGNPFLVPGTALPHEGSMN

**Q.** Which inhibition of TNF-alpha secretion by human PBMCs stimulated with Env-SU, cells preincubated with anti-CD14 antibody [1] does the source give for “anti-CD14 neutralizing antibody (rhCD14, ref.: AB383, R&D Systems-UK)” here?
**A.** 83%

**Q.** How did the inhibition of TNF-alpha secretion by human PBMCs stimulated with Env-SU, cells preincubated with anti-TLR4 antibody [2] turn out when “anti-human TLR4 monoclonal antibody HTA125 (eBioscience)” was run?
**A.** 37%

Reference: patent publication US7666420
